Here are results for 32 variants from the RNAGym collection of RNA variant scans (doi:10.7554/elife.80360).

B1: HDV Ribozyme (parent)
chain: GGCCGGCAUGGUCCCAGCCUCCUCGCUGGCGCCGGCUGGGCAACAUUCCGAGGGGACCGUCCCCUCGGUAAUGGCGAAUGGGACCCA

In the series the parent is B1. Nature of the series: self-cleavage, relative activity (ratio to wild type); higher = more cleavage; co-transcriptional.
Take GGCCGGCCUGGUCCCAGCCUCCUCGCUAGCGCCGGCUGGGCAACAUUCCGAGGGGACCGUCCCCUCGGUAAUGGCGAAUGGGACCCA [A8C G28A]: the self-cleavage worked out at 0.252.
For the variant GGCCGGCCUGGUCCCAGCCUCCUCGCUUGCGCCGGCUGGGCAACAUUCCGAGGGGACCGUCCCCUCGGUAAUGGCGAAUGGGACCCA [A8C G28U], the self-cleavage was 0.0978.
Turning to GGCCGGCCUGGUCCCAGCCUCCUCGCUGGCGCCGGCUGGGCAACAUUCCGAGGGGACCGUCCCCUCGGUAAUGGCGAAUGGGACGCA [A8C C85G], the self-cleavage came out at 0.798.
To GGCCGGCCUGGUCCCAGCCUCCUCGCUGGCGCCGGCUGGGCAACAUUCCGAGGGGACCGUCCCCUCGGUAAUGGCGAAUGGGACACA [A8C C85A] belongs 0.831; to GGCCGGCCUGGUCCCAGCCUCCUCGCUGGCGCCGGCUGGGCAACAUUCCGAGGGGACCGUCCCUUCGGUAAUGGCGAAUGGGACCCA [A8C C64U], 0.923; to GGCCGGCCUGGUCCCAGCCUCCUCGCUGGCGCCGGCUGGGCAACAUUCCGAGGGGACCGUCCCAUCGGUAAUGGCGAAUGGGACCCA [A8C C64A], 0.639.
To GGCCGGCCUGGUCCCAGCCUCCUCGCUGGCGCCGGCUGGGCAACAUUCCGAGGGGACCGUCCCGUCGGUAAUGGCGAAUGGGACCCA [A8C C64G] belongs 0.415; to GGCCGGCCUGGUCCCAGCCUCCUCGCUGGCGCCGGCUGGGCAACAUUCUGAGGGGACCGUCCCCUCGGUAAUGGCGAAUGGGACCCA [A8C C49U], 0.567; to GGCCGGCCUGGUCCCAGCCUCCUCGCUGGCGCCGGCUGGGCAACAUUCGGAGGGGACCGUCCCCUCGGUAAUGGCGAAUGGGACCCA [A8C C49G], 0.475.
The value for GGCCGGCCUGGUCCCAGCCUCCUCGCUGGCGCCGGCUGGGCAACAUUCCGAGGGGACCGUCACCUCGGUAAUGGCGAAUGGGACCCA [A8C C62A] was 0.918; that for GGCCGGCCUGGUCCCAGCCUCCUCGCUGGCGCCGGCUGGGCAACAUUCCGAGGGGACCGUCGCCUCGGUAAUGGCGAAUGGGACCCA [A8C C62G] was 0.475.
In the case of GGCCGGCCUGGUCCCAGCCUCCUCGCUGUCGCCGGCUGGGCAACAUUCCGAGGGGACCGUCCCCUCGGUAAUGGCGAAUGGGACCCA [A8C G29U], the self-cleavage is 0.151.
On to GGCCGGCCUGGUCCCAGCCUCCUCGCUGACGCCGGCUGGGCAACAUUCCGAGGGGACCGUCCCCUCGGUAAUGGCGAAUGGGACCCA [A8C G29A], for which the self-cleavage was determined as 0.18.
As to GGCCGGCCUGGUCCCAGCCUCCUCGCUGCCGCCGGCUGGGCAACAUUCCGAGGGGACCGUCCCCUCGGUAAUGGCGAAUGGGACCCA [A8C G29C], the self-cleavage is 0.
To GGCCGGCCUGGUCCCAGCCUCCUCGCUGGCGACGGCUGGGCAACAUUCCGAGGGGACCGUCCCCUCGGUAAUGGCGAAUGGGACCCA [A8C C32A] belongs 0.119; to GGCCGGCCUGGUCCCAGCCUCCUCGCUGGCGCCGGCUGGACAACAUUCCGAGGGGACCGUCCCCUCGGUAAUGGCGAAUGGGACCCA [A8C G40A], 0.511.
In the case of GGCCGGCCUGGUCCCAGCCUCCUCGCUGGCACCGGCUGGGCAACAUUCCGAGGGGACCGUCCCCUCGGUAAUGGCGAAUGGGACCCA [A8C G31A], the self-cleavage was found to be 0.162.
With GGCCGGCCUGGUCCCAGCCUCCUCGCUGGCGCCGGCUGGGCAACAUUCCGAGGGGACCAUCCCCUCGGUAAUGGCGAAUGGGACCCA [A8C G59A], the self-cleavage is 1.07.
With GGCCGGCCUGGUCCCAGCCUCCUCGCUGGCGCCGGCUGGGCAACAUUCCGAGGGGACCCUCCCCUCGGUAAUGGCGAAUGGGACCCA [A8C G59C], the self-cleavage was determined as 0.923.
The value for GGCCGGCCUGGUCCCAGCCUCCUCGCUGGCGCCGGCUGGGCAACAUUCCGAGGGGACCGUCCCCUCGGUAAUGGCGAAUGGGACCAA [A8C C86A] was 0.72.
The value for GGCCGGCCUGGUCCCAGCCUCCUCGCUGGCGCCGGCUGGGCAACAUUCCGAGGGGACCGUCCCCUCGGUAAUGGCGAAUGGGACCUA [A8C C86U] was 0.862; that for GGCCGGCCUGGUCCCAGCCUCCUCGCUGGCGCCGGCUGGGCAACAUUCCGAGGGGACCGUCCCCUCAGUAAUGGCGAAUGGGACCCA [A8C G67A] was 0.898.
As to GGCCGGCCUGGUCCCAGCCUCCUCGCUGGCGCCGGCUGGGCAACAUUCCGAGGGGAACGUCCCCUCGGUAAUGGCGAAUGGGACCCA [A8C C57A], the self-cleavage stood at 0.89.
The value for GGCCGGCCUGGUCCCAGCCUCCUCGCUGGCGCCGCCUGGGCAACAUUCCGAGGGGACCGUCCCCUCGGUAAUGGCGAAUGGGACCCA [A8C G35C] was 0.
To GGCCGGCCUGGUCCCAGCCUCCUCGCUGGCGCCGUCUGGGCAACAUUCCGAGGGGACCGUCCCCUCGGUAAUGGCGAAUGGGACCCA [A8C G35U] belongs 0.269; to GGCCGGCCUGGUCCCAGCCUCCUCGCUGGCGCCGGCUGGGCAACAUUCCGAGGGGACCGUCCCCUCGGUAAUGGAGAAUGGGACCCA [A8C C75A], 0.128.
To GGCCGGCCUGGUCCCAGCCUCCUCGCUGGCGCCGGCUGGGCAACAUUCCGAGGGGACCGUCCCCUCGGUAAUGGGGAAUGGGACCCA [A8C C75G] belongs 0.277; to GGCCGGCCUGGUCCCAGCCUCCUCGCUGGCGCCGGCUGGGCAACAUUACGAGGGGACCGUCCCCUCGGUAAUGGCGAAUGGGACCCA [A8C C48A], 1.35.
For GGCCGGCCUGGUCCCAGCCUCCUCGCUGGCGCCGGCUGGGCAACAUUCCGAGGGCACCGUCCCCUCGGUAAUGGCGAAUGGGACCCA [A8C G55C], the self-cleavage came out at 1.03.
The value for GGCCGGCCUGGUCCCAGCCUCCUCGCUGGCGCCGGCUGGGCAACAUUCCGAGGGUACCGUCCCCUCGGUAAUGGCGAAUGGGACCCA [A8C G55U] was 0.831; that for GGCCGGCCUGGUCCCAGCCUCCUCGCUGGCGCCGGCUGGGCAACAUUCCGAGGGGACCGUCCCCUCGGUAAUGGCGAAUGGGAUCCA [A8C C84U] was 0.462; that for GGCCGGCCUGGUCCCAGCCUCCUCGCUGGCGCCGGCUGGGCAACAUUCCGAGGGGACCGUCCCCUCGGUAAUGGCGAAUGGGAACCA [A8C C84A] was 0.751.
